± gives the uncertainty stated by the source.
B1: Probable E3 ubiquitin-protein ligase MID2, residues 191 to 235; numbered along this chain, Q9UJV3 (parent)
chain: RGITCLDHENEKVNMYCVSDDQLICALCKLVGRHRDHQVASLNDR

Variants of: B1
Assay: abundance fitness (aPCA) (normalised: wild type 0, dead -1); higher = more abundant; growth selection in yeast, the domain comes from the species named
Conditions: Homo sapiens

RGITCLDHENEKVNMYCVSDDQLICALCKLVGRHRDHQVASMNDR [L42M] and RGITCLDHENEKVNMYCVSDDQLICSLCKLVGRHRDHQVASLNDR [A26S] are within error of each other in abundance fitness: -0.031 ± 0.06 for the first, -0.006 ± 0.06 for the second.

First: RGITCLDHENEKVNMYCVSDDQLICALCKQVGRHRDHQVASLNDR [L30Q]
Second: RGITCLDHENAKVNMYCVSDDQLICALCKLVGRHRDHQVASLNDR [E11A]
The abundance fitness of the first is higher: 0.109 ± 0.06 for the first, -0.177 ± 0.047 for the second.

Compared with RGITCVDHENEKVNMYCVSDDQLICALCKLVGRHRDHQVASLNDR [L6V], VGITCLDHENEKVNMYCVSDDQLICALCKLVGRHRDHQVASLNDR [R1V] is lower in abundance fitness: 0.021 ± 0.045 for the first, -0.195 ± 0.066 for the second.

Compared with RGITCLAHENEKVNMYCVSDDQLICALCKLVGRHRDHQVASLNDR [D7A], RGITCLDHENEKVNMYCVSDDQLICALCKLVGRHRCHQVASLNDR [D36C] is lower in abundance fitness: -0.128 ± 0.051 for the first, -0.278 ± 0.067 for the second.

RGITCLDHENEKVNMYCVSDDQLICALCKLVGRTRDHQVASLNDR [H34T] and RGITCLDHENEKVNMYCVSDDQLHCALCKLVGRHRDHQVASLNDR [I24H] are within error of each other in abundance fitness: -0.473 ± 0.1 for the first, -0.197 ± 0.22 for the second.

RGITCLDHENEKVNMYCVSDDQLICALCKLVGRHRDHQVASLNDH [R45H] and RGITCLNHENEKVNMYCVSDDQLICALCKLVGRHRDHQVASLNDR [D7N] are within error of each other in abundance fitness: 0.256 ± 0.29 for the first, -0.107 ± 0.083 for the second.

NGITCLDHENEKVNMYCVSDDQLICALCKLVGRHRDHQVASLNDR [R1N] and RGHTCLDHENEKVNMYCVSDDQLICALCKLVGRHRDHQVASLNDR [I3H] are within error of each other in abundance fitness: -0.017 ± 0.15 for the first, -0.195 ± 0.26 for the second.

Going from RGITCLDHENEKVNMYCVSDDQLICALCKLVGRHRDHQVASGNDR [L42G] to RGITCLDHENEKVNMYCVSDDQLICALVKLVGRHRDHQVASLNDR [C28V], the abundance fitness falls from -0.071 ± 0.055 to -1.11 ± 0.13.

First: RGITCLDHENEKVNMYCVSDDQLICALCKLVGSHRDHQVASLNDR [R33S]
Second: RGITCLDHENEKVNMYCVSDDQLICALCKLVSRHRDHQVASLNDR [G32S]
The abundance fitness of the first is higher: -0.112 ± 0.081 for the first, -0.408 ± 0.07 for the second.

RGITCLDHENEKVNMYCVSDDQLICATCKLVGRHRDHQVASLNDR [L27T] and RGITCLDHENEKVNMYCVHDDQLICALCKLVGRHRDHQVASLNDR [S19H] are within error of each other in abundance fitness: -0.144 ± 0.36 for the first, 0.093 ± 0.11 for the second.

Compared with RGITCLDHENEKVQMYCVSDDQLICALCKLVGRHRDHQVASLNDR [N14Q], RGITCLDHENEKVNMYCVSDDQLICALCCLVGRHRDHQVASLNDR [K29C] is lower in abundance fitness: 0.119 ± 0.093 for the first, -0.144 ± 0.13 for the second.

RGITCLDHENEKVNMYCVSDNQLICALCKLVGRHRDHQVASLNDR [D21N] and REITCLDHENEKVNMYCVSDDQLICALCKLVGRHRDHQVASLNDR [G2E] are within error of each other in abundance fitness: 0.031 ± 0.12 for the first, 0.115 ± 0.063 for the second.

RKITCLDHENEKVNMYCVSDDQLICALCKLVGRHRDHQVASLNDR [G2K] and RGITCLDHENEKVNMYCVSDDQVICALCKLVGRHRDHQVASLNDR [L23V] are within error of each other in abundance fitness: 0.042 ± 0.25 for the first, 0.006 ± 0.064 for the second.

Going from RYITCLDHENEKVNMYCVSDDQLICALCKLVGRHRDHQVASLNDR [G2Y] to RGITHLDHENEKVNMYCVSDDQLICALCKLVGRHRDHQVASLNDR [C5H], the abundance fitness falls from 0.023 ± 0.12 to -0.555 ± 0.1.

RGITCLDHENEKVGMYCVSDDQLICALCKLVGRHRDHQVASLNDR [N14G] and RGITCLDHENEKSNMYCVSDDQLICALCKLVGRHRDHQVASLNDR [V13S] are within error of each other in abundance fitness: -0.021 ± 0.05 for the first, -0.092 ± 0.081 for the second.

First: RGITCLDHENEKVNMYCVSDDQLICALCKLVGRHRDHQVASLNWR [D44W]
Second: RGITCLDHENEKVNMYCVSDDQLICALCKLVGRHRDHQVASRNDR [L42R]
The abundance fitness of the first is lower: -0.472 ± 0.13 for the first, -0.095 ± 0.06 for the second.

Going from RGITCLDHENEKVNMYCVSDDQLICALCKLVGRHRDHQVQSLNDR [A40Q] to RGITCLDHENEKVNMYCVSDDQLICAYCKLVGRHRDHQVASLNDR [L27Y], the abundance fitness falls from 0.09 ± 0.076 to -0.263 ± 0.13.

First: RGNTCLDHENEKVNMYCVSDDQLICALCKLVGRHRDHQVASLNDR [I3N]
Second: RGITCLDHENEKVNMYCVSDDQLICALCKLVGRHRDHQVALLNDR [S41L]
The abundance fitness of the first is higher: 0.162 ± 0.12 for the first, -0.157 ± 0.068 for the second.

First: RGITCLDHENEVVNMYCVSDDQLICALCKLVGRHRDHQVASLNDR [K12V]
Second: RGIECLDHENEKVNMYCVSDDQLICALCKLVGRHRDHQVASLNDR [T4E]
The abundance fitness of the first is higher: -0.083 ± 0.065 for the first, -0.209 ± 0.049 for the second.

RGITCLDHENEKVNMYCVSDDQLICALCKLVGRHRDHQVAPLNDR [S41P] and RGITCLDHENEKVNMYCVSDDQLICALCKLVGRHRDHQTASLNDR [V39T] are within error of each other in abundance fitness: 0.061 ± 0.087 for the first, 0.06 ± 0.063 for the second.

RGITCLDHENEKVNMYCVSDDQLICALCKLVGRHRDHQVASLVDR [N43V] and RGSTCLDHENEKVNMYCVSDDQLICALCKLVGRHRDHQVASLNDR [I3S] are within error of each other in abundance fitness: -0.042 ± 0.086 for the first, -0.081 ± 0.048 for the second.

RGITCLDHENEKVNMYCVSDDQLICALCKLVERHRDHQVASLNDR [G32E] and RGITCLDHENEKVNMYCVSDDQLICALCKLVGRHRDHQVASTNDR [L42T] are within error of each other in abundance fitness: -0.248 ± 0.1 for the first, -0.096 ± 0.086 for the second.

RGITCLDHENEKVNMYCVSDDQLICALCKWVGRHRDHQVASLNDR [L30W] and RGITCLDHENEKVNMYCCSDDQLICALCKLVGRHRDHQVASLNDR [V18C] are within error of each other in abundance fitness: -0.095 ± 0.065 for the first, 0.036 ± 0.082 for the second.

RGIQCLDHENEKVNMYCVSDDQLICALCKLVGRHRDHQVASLNDR [T4Q] and RGITCLDHEKEKVNMYCVSDDQLICALCKLVGRHRDHQVASLNDR [N10K] are within error of each other in abundance fitness: -0.257 ± 0.064 for the first, -0.226 ± 0.12 for the second.

RGITCLDHENEKVNMYCVSDDQLICAWCKLVGRHRDHQVASLNDR [L27W] and RGIFCLDHENEKVNMYCVSDDQLICALCKLVGRHRDHQVASLNDR [T4F] are within error of each other in abundance fitness: -0.145 ± 0.063 for the first, 0.001 ± 0.14 for the second.

RGITCLDHENEKVNMYCVSDDQCICALCKLVGRHRDHQVASLNDR [L23C] and RGITCLDHENEKVNMYCVSDDQLACALCKLVGRHRDHQVASLNDR [I24A] are within error of each other in abundance fitness: 0.049 ± 0.22 for the first, -0.104 ± 0.11 for the second.

RGITCLDHENEKVNMYCVSDDQLICALCKPVGRHRDHQVASLNDR [L30P] and RGITCLDHENEKVNMYCVSDDQLICALCKLVGRHRDHTVASLNDR [Q38T] are within error of each other in abundance fitness: -0.136 ± 0.076 for the first, -0.195 ± 0.1 for the second.

Going from RGITCLDHENEKVEMYCVSDDQLICALCKLVGRHRDHQVASLNDR [N14E] to RGITCLDHELEKVNMYCVSDDQLICALCKLVGRHRDHQVASLNDR [N10L], the abundance fitness falls from 0.104 ± 0.069 to -0.102 ± 0.06.

In the case of RGITCLDHENEKVNMYCVSDDQLICALCKLVGRHRDHRVASLNDR [Q38R], the abundance fitness is reported as -0.002 ± 0.053.
